biological target: T1, HLA-A*0301 (human); assay: competition with 125I-labelled probe peptide for purified HLA-A*0301, gel filtration; ratio to standard peptide 941.12
T1 construct: also called HLA-A3

Row | Binder | relative binding ratio (IC50 of standard peptide / IC50 of test peptide)
1 | ETEYHADGGK (Synthetic peptide) [HER2/neu peptide, position 874, 10 amino acids (ETEYHADGGK)] | 0.0003 ratio
2 | ETLEEITGY (Synthetic peptide) [HER2/neu peptide, position 401, 9 amino acids (ETLEEITGY)] | 0.0002 ratio
3 | EVTAEDGTQR (Synthetic peptide) [HER2/neu peptide, position 321, 10 amino acids (EVTAEDGTQR)] | 0.0002 ratio
4 | DLAARNVLVK (Synthetic peptide) [HER2/neu peptide, position 845, 10 amino acids (DLAARNVLVK)] | 0.0018 ratio
5 | DLSYMPIWK (Synthetic peptide) [HER2/neu peptide, position 607, 9 amino acids (DLSYMPIWK)] | 0.0005 ratio
6 | DSECRPRFR (Synthetic peptide) [HER2/neu peptide, position 962, 9 amino acids (DSECRPRFR)] | -0.0002 ratio
7 | DVRPQPPSPR (Synthetic peptide) [HER2/neu peptide, position 1144, 10 amino acids (DVRPQPPSPR)] | 0.0003 ratio
8 | ELHCPALVTY (Synthetic peptide) [HER2/neu peptide, position 265, 10 amino acids (ELHCPALVTY)] | 0.0002 ratio
9 | ELMTFGAKPY (Synthetic peptide) [HER2/neu peptide, position 914, 10 amino acids (ELMTFGAKPY)] | 0.0002 ratio
10 | ESMPNPEGR (Synthetic peptide) [HER2/neu peptide, position 280, 9 amino acids (ESMPNPEGR)] | 0.0003 ratio

biological target: T2, HLA-A*1101 (human); assay: competition with 125I-labelled standard peptide for purified HLA, gel filtration
T2 construct: The construct is not described

Row | Binder | relative binding ratio
11 | VSEFSRMAR (Synthetic peptide; also called Her2/neu.973 (9-mer)) | 0.0021 ratio (IC50 of standard peptide / IC50 of test peptide)
12 | VTGASPGGLR (Synthetic peptide; also called Her2/neu.129 (10-mer)) | 0.0005 ratio (IC50 of standard peptide / IC50 of test peptide)

biological target: T3, HLA-A*0301 (human); assay: as above
T3 construct: also called A3

Row | Binder | relative binding ratio
13 | VSEFSRMAR (Synthetic peptide; also called Her2/neu.973 (9-mer)) | -0.0002 ratio (IC50 of standard peptide / IC50 of test peptide)
14 | VTGASPGGLR (Synthetic peptide; also called Her2/neu.129 (10-mer)) | 0.0002 ratio (IC50 of standard peptide / IC50 of test peptide)

biological target: T4, HLA-A*0301 (human); assay: inhibition of 125I-labelled standard peptide 941.12 binding to purified HLA-A*0301, gel filtration
T4 construct: also called HLA-A3

Row | Binder | relative binding ratio (IC50 of standard peptide / IC50 of test peptide)
15 | PASPLDSTFY [HER2/neu peptide, position 996, 10 amino acids] | 0.0003 ratio
16 | PLPSETDGY [HER2/neu peptide, position 1119, 9 amino acids] | 0.0002 ratio
17 | PLQRLRIVR [HER2/neu peptide, position 95, 9 amino acids] | 0.0002 ratio
18 | PLTCSPQPEY [HER2/neu peptide, position 1130, 10 amino acids] | 0.0002 ratio
19 | PSGVKPDLSY [HER2/neu peptide, position 601, 10 amino acids, listing 1 of 2 here] | 0.0003 ratio
20 | PTHDPSPLQR (H was used here) [HER2/neu peptide, position 1102, 10 amino acids] | 0.0003 ratio
21 | QALLHTANR [HER2/neu peptide, position 491, 9 amino acids] | 0.0046 ratio
22 | QLVTQLMPY [HER2/neu peptide, position 795, 9 amino acids] | 0.011 ratio
23 | QVCTGTDMK [HER2/neu peptide, position 24, 9 amino acids] | 0.0007 ratio
24 | QVRQVPLQR [HER2/neu peptide, position 90, 9 amino acids] | 0.0029 ratio

biological target: HLA-A*2402 (human); assay: inhibition of 125I-labeled probe peptide binding to purified HLA-A*2402, gel filtration

Row | Binder | IC50
25 | RWGLLLAL (HER2/neu peptide, 8-mer; also called RWGLLLAL) [Her2/neu.8] | 480 nM
26 | TYLPTNASL (HER2/neu peptide, 9-mer) [Her2/neu.63] | 316 nM
27 | TYLPTNASF (HER2/neu analog peptide) [Her2/neu.63.F9] | 44 nM
28 | CYGLGMEHF (HER2/neu analog peptide) [Her2/neu.342.F9] | 164 nM
29 | LYISAWPDSL (HER2/neu peptide) [Her2/neu.410] | 143 nM
30 | LYISAWPDSF (HER2/neu analog peptide) [Her2/neu.410.F10] | 10 nM
31 | AYPDSLPDF (HER2/neu analog peptide; label printed with a misprint (Herw/neu414)) [Herw/neu414.Y2F9] | 24 nM
32 | AYSLTLQGL (HER2/neu peptide) [Her2/neu.440] | 92 nM
33 | AYSLTLQGF (HER2/neu analog peptide) [Her2/neu.440.F9] | 52 nM
34 | SYMPIWKF (HER2/neu peptide) [Her2/neu.609] | 38 nM
35 | RYTHQSDVF (HER2/neu analog peptide) [Her2/neu.898.Y2F9] | 60 nM
36 | SYGVTVWEL (HER2/neu peptide) [Her2/neu.907] | 100 nM

biological target: T5, HLA-A*0101 (purified HLA class I molecule) (human); assay: competition with 125I-labelled standard peptide on purified HLA-A*0101, gel filtration
T5 construct: also called HLA-A1

Row | Binder | relative binding ratio (IC50 of standard peptide / IC50 of test peptide)
37 | YVMAGVGSPY | 1.1 ratio
38 | CSKPCARVCY [HER2/neu peptide, position 334, 10 amino acids] | 0.0016 ratio
39 | PSGVKPDLSY [HER2/neu peptide, position 601, 10 amino acids, listing 2 of 2 here] | 0.001 ratio
40 | ETHLDMLRHLY (also called Her2/neu.40) [HER2/neu peptide, position 40, 11 amino acids] | 0.28 ratio
41 | ETLEEITGYLY (also called Her2/neu.401) [HER2/neu peptide, position 401, 11 amino acids] | 0.44 ratio
42 | PTHDPSPLQRY (H is used here) [HER2/neu peptide, position 1102, 11 amino acids] | 0.016 ratio
43 | DMGDLVDAEEY [HER2/neu peptide, position 1013, 11 amino acids] | 0.0027 ratio

biological target: HLA-A*1101 (human); assay: competition with 125I-labelled probe peptide for purified HLA-A*1101, gel filtration; ratio to standard peptide 940.06 [..] (6.0 nM)

Row | Binder | relative binding ratio (IC50 of standard peptide / IC50 of test peptide)
44 | VSEFSRMAR (also called Her2/neu.973) | 0.0021 ratio
45 | VTAEDGTQR (also called Her2/neu.322) [HER2/neu peptide, position 322, 9 amino acids] | 0.014 ratio
46 | VTGASPGGLR (also called Her2/neu.129) | 0.0005 ratio
47 | VVQGNLELTY (also called Her2/neu.55) [HER2/neu peptide, position 55, 10 amino acids] | 0.011 ratio
48 | WIPDGENVK (also called Her2/neu.739) [HER2/neu peptide, printed position 730 (taken as 739), 9 amino acids] | 0.0001 ratio
49 | WMALESILR (also called Her2/neu.888) [HER2/neu peptide, position 888, 9 amino acids] | -0.0002 ratio
50 | WMALESILRR (also called Her2/neu.888) [HER2/neu peptide, position 888, 10 amino acids] | 0.0016 ratio
51 | WMIDSECRPR (also called Her2/neu.959) [HER2/neu peptide, position 959, 10 amino acids] | 0.0002 ratio
52 | YLEDVRLVHR (also called Her2/neu.835) [HER2/neu peptide, position 835, 10 amino acids] | 0.0001 ratio
53 | YVLIAHNQVR (also called Her2/neu.83) [HER2/neu peptide, position 83, 10 amino acids] | 0.0013 ratio
54 | YVMAGVGSPY (also called Her2/neu.772) | 0.012 ratio

biological target: T6, HLA-A*0101 (human); assay: inhibition of 125I-labeled probe peptide binding to purified HLA-A*0101, gel filtration
T6 construct: also called HLA-A1

Row | Binder | IC50
55 | GTDMKLRLPY (HER2/neu analog peptide) [Her2/neu.28.Y10] | 50 nM
56 | ETHLDMLRHLY (HER2/neu peptide) [Her2/neu.40] | 89 nM
57 | HTDMLRHLY (HER2/neu analog peptide) [Her2/neu.42.T2] | 1.9 nM
58 | GTDLFEDNY (HER2/neu analog peptide) [Her2/neu.104.D3] | 0.9 nM
59 | PTDCCHEQCAA (HER2/neu peptide, 11-mer) [Her2/neu.232] | 58 nM
60 | ETMPNPEGRY (HER2/neu analog peptide) [Her2/neu.280.T2] | 3.9 nM
61 | ASCVTACPY (HER2/neu peptide, 9-mer) [Her2/neu.293] | 455 nM
62 | ATCVTACPY (HER2/neu analog peptide) [Her2/neu.293.T2] | 49 nM
63 | VTACPYNY (HER2/neu peptide) [Her2/neu.296] | 250 nM
64 | VFETLEEITGY (HER2/neu peptide) [Her2/neu.399] | 5560 nM
65 | EADQCVACAHY (HER2/neu peptide) [Her2/neu.580] | 250 nM
